Measurements from paper PMC10894483, “In silico design of multipoint mutants for enhanced performance of Thermomyces lanuginosus lipase for efficient biodiesel production” (Biotechnology for Biofuels and Bioproducts, 2024).

Substrate: CCCCCCCCCCCCCCCC(=O)Oc1ccc([N+](=O)[O-])cc1
Assay: colorimetric p-nitrophenol release, Michaelis-Menten fit
Type: biochemical, Thermomyces lanuginosus
Details: 45 °C, Tris-HCl pH 8.5, 10-100 mM pNPP, fermentation supernatant

B1: Thermomyces lanuginosus lipase (TLL; wt–TLL) (Thermomyces lanuginosus) (protein)
chain: EVSQDLFNQFNLFAQYSAAAYCGKNNDAPAGTNITCTGNACPEVEKADATFLYSFEDSGVGDVTGFLALDNTNKLIVLSFRGSRSIENWIGNLNFDLKEINDICSGCRGHDGFTSSWRSVADTLRQKVEDAVREHPDYRVVFTGHSLGGALATVAGADLRGNGYDIDVFSYGAPRVGNRAFAEFLTVQTGGTLYRITHTNDIVPRLPPREFGYSHSSPEYWIKSGTLVPVTRNDIVKIEGIDATGGNNQPNIPDIPAHLWYFGLIGTCL
notes: N-terminal 6xHis-tag, yeast secretion signal, secreted from Pichia pastoris GS115; fermentation supernatant used without purification (single band); 35 kDa
B1 gave a Km of 3.61 ± 0.10 mM.
